The source of these data is US20110245473A1 (Chugai, published 2011).

Experiment [1] addresses T1, SR344 (soluble human IL-6R, N-terminal 1st to 344th amino acids) (human, UniProt P08887 20-344, limits assumed).
T1 sequence (looked up): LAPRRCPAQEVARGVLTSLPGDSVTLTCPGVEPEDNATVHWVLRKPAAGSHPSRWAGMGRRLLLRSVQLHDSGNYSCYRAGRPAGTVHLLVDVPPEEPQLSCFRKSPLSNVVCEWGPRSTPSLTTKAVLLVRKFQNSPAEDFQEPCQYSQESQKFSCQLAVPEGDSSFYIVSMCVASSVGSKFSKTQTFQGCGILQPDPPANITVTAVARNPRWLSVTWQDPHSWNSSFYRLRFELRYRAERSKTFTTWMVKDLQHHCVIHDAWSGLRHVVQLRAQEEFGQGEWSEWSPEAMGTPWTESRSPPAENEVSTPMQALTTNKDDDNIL
Kind of experiment: cell-based or functional assay.

The target in experiment [2] is T2, recombinant human IL-6R sR (R&D systems) (human, UniProt P08887 20-358).
T2 construct: Bought soluble receptor; also called rhIL-6sR; rhIL-s6R
T2 sequence (looked up): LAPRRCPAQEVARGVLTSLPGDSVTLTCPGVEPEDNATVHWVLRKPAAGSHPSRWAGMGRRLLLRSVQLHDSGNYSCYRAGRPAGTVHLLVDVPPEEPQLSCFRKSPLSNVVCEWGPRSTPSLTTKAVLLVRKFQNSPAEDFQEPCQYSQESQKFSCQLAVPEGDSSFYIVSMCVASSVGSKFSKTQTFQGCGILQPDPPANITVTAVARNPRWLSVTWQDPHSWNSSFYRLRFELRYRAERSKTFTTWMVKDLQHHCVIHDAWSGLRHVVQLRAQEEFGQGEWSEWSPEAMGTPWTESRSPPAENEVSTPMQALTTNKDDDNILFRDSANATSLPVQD
Kind of experiment: SPR (Biacore T100), antibody captured on Protein A, rhIL-6sR as analyte, 25°C. A general note: Surface plasmon resonance follows binding to a sensor surface in real time, without labels.

Experiment [3] addresses T1, SR344 (soluble human IL-6R, N-terminal …). Kind of experiment: SPR (Biacore T100), antibody captured on Protein A/G, SR344 as analyte, 37°C.
For experiment [4], the target named is T2, recombinant human IL-6R sR (R&D systems). Kind of experiment: SPR (Biacore T100), antibody captured on Protein A/G, 37°C; end of the range tied by the KD values of Table 3.
Experiment [5] addresses T1, SR344 (soluble human IL-6R, N-terminal …). The experiment is described as above.
Experiment [6] has as its target T2, recombinant human IL-6R sR (R&D systems). The experiment can be described thus: SPR (Biacore T100), antibody captured on Protein A, rhIL-6sR as analyte, 25°C. This is another data set of the same source.
Experiment [7] deals with T3, soluble human FcRn (complex of FcRn and β2-microglobulin) (human, UniProt P55899 24-290; P61769 21-119).
T3 construct: Expressed constructs contain the signal regions (FcRn Met1-Leu290; β2-microglobulin Met1-Met119); also called hFcRn
Kind of experiment: SPR (Biacore 3000), antibody captured, human FcRn as analyte, pH 6.0.

For experiment [8], the target named is T1, SR344 (soluble human IL-6R, N-terminal …). The experiment can be described thus: SPR (Biacore T100), SR344 as analyte, 37°C; end of the range tied by the KD values of Table 16.

T3 sequence (P55899 24-290 limits assumed, chain 1 of 2): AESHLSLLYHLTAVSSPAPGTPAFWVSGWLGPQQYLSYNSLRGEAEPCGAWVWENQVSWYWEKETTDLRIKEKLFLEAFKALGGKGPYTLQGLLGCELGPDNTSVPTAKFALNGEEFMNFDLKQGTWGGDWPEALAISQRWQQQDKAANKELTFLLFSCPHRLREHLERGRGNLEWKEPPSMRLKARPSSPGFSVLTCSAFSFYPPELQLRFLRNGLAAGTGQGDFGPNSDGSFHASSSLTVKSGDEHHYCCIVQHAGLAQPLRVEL
T3 sequence (P61769 21-119 limits assumed, chain 2 of 2): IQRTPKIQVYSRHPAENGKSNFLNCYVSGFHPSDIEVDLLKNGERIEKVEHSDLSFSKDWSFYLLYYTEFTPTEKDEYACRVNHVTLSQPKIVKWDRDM

B1: RD-6 (antibody, V domains shown)
VH: QVQLQESGPGLVRPSQTLSLTCTVSGYSITSDHAWSWVRQPPGRGLEWIGYISYSGITTYNPSLKSRVTMLRDTSKNQFSLRLSSVTAADTAVYYCARLLARATAMDYWGQGSLVTVSS
VL: DIQMTQSPSSLSASVGDRVTITCRASQDISSYLNWYQQKPGKAPKLLIYYTSRLHSGVPSRFSGSGSGTDFTFTISSLQPEDIATYYCQQGNTLPYTFGQGTKVEIK
As to B1, in experiment [1], the “BaF/gp130-neutralizing activity, 100% inhibitory concentration, against WT” value was roughly 50 times higher than WT. The “fold higher affinity than WT” value in experiment [2] was roughly 50 times.

B2: H53/L28 (antibody, IgG1, V domains shown)
VH: QVQLQESGPGLVKPSETLSLTCAVSGYSISDDHAWSWVRQPPGEGLEWIGYISYSGITNYNPSLKGRVTISRDTSKNQFSLKLSSVTAADTAAYYCARSLARTTAMDYWGEGTLVTVSS
VL: DIQMTQSPSSLSASVGDSVTITCQASQDISSYLNWYQQKPGKAPELLIYYGSELHSGVPSRFSGSGSGTDFTFTISSLEAEDAATYYCQQGNSLPYTFGQGTKVEIE
notes: made from the humanized PM-1 IgG1 vectors; also called altered antibody H53/L28
Regarding B2, in experiment [3], the “fold reduction of KD compared to WT” value is roughly 6 fold.

B3: RDC-23 (antibody, V domains shown)
VH: QVQLQESGPGLVRPSQTLSLTCTVSGYSITSDHAWSWVRQPPGRGLEWIGYISYSGITTYNPSLKSRVTMLRDTSKNQFSLRLSSVTAADTAVYYCARVLARITAMDYWGQGSLVTVSS
VL: DIQMTQSPSSLSASVGDRVTITCRASQDISSYLNWYQQKPGKAPKLLIYYTSRLHSGVPSRFSGSGSGTDFTFTISSLQPEDIATYYCGQGNRLPYTFGQGTKVEIK
notes: IgG; also called H chain RDC-5H, L chain RDC-11L
B3: the “BaF/gp130-neutralizing activity, 100% inhibitory concentration, against WT” value in experiment [1] was roughly 100 times higher than WT. Further, the “fold improved affinity compared to WT” value in experiment [4] and in experiment [5] was 40 to 60 times throughout.

B4: RDC-8 (antibody, V domains shown)
VH: QVQLQESGPGLVRPSQTLSLTCTVSGYSITSDHAWSWVRQPPGRGLEWIGYISYSGITTYNPSLKSRVTMLRDTSKNQFSLRLSSVTAADTAVYYCARLLARITAMDYWGQGSLVTVSS
VL: DIQMTQSPSSLSASVGDRVTITCRASQDISSYLNWYQQKPGKAPKLLIYYTSRLHSGVPSRFSGSGSGTDFTFTISSLQPEDIATYYCQQGNTLPYTFGQGTKVEIK
notes: IgG; also called H chain RDC-8H, L chain L(WT)
By koff is commonly meant a measure of how fast the partners let go of each other. Turning to B4, the koff in experiment [6] amounted to 3.8e-05 s⁻¹.

B5: PF1 antibody (antibody, IgG1, V domains shown)
VH: QVQLQESGPGLVKPSETLSLTCAVSGYSISDDHAWSWVRQPPGEGLEWIGYISYSGITNYNPSLKGRVTISRDTSKNQFSLKLSSVTAADTAAYYCARVLARITAMDYWGEGTLVTVSS
VL: DIQMTQSPSSLSASVGDSVTITCQASQDISSYLNWYQQKPGKAPELLIYYGSELHSGVPSRFSGSGSGTDFTFTISSLEAEDAATYYCGQGNRLPYTFGQGTKVEIE
notes: also called PF1-IgG1; PF1_H/PF1_L
Regarding B5, the “fold improved affinity compared to WT” value in experiment [3] was roughly 150 times.

B6: WT-M58 (antibody)
heavy: QVQLQESGPGLVRPSQTLSLTCTVSGYSITSDHAWSWVRQPPGRGLEWIGYISYSGITTYNPSLKSRVTMLRDTSKNQFSLRLSSVTAADTAVYYCARSLARTTAMDYWGQGSLVTVSSASTKGPSVFPLAPSSKSTSGGTAALGCLVKDYFPEPVTVSWNSGALTSGVHTFPAVLQSSGLYSLSSVVTVPSSNFGTQTYTCNVDHKPSNTKVDKTVERKSCVECPPCPAPPVAGPSVFLFPPKPKDTLMISRTPEVTCVVVDVSQEDPEVQFNWYVDGVEVHNAKTKPREEQFNSTFRVVSVLTVVHQDWLNGKEYKCKVSNKGLPAPIEKTISKTKGQPREPQVYTLPPSQEEMTKNQVSLTCLVKGFYPSDIAVEWESNGQPENNYKTTPPMLDSDGSFFLYSKLTVDKSRWQEGNVFSCSVMHEALHNHYTQKSLSLSP
light: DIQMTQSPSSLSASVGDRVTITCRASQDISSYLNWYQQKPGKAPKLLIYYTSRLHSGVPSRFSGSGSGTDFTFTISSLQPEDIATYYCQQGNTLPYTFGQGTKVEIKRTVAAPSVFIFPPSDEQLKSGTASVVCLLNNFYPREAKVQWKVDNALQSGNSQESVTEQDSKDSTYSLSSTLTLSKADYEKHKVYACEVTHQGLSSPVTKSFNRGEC
notes: L(WT) as L chain; copies: 2 + 2
With B6, in experiment [7], the “binding relative to WT-IgG1” value is ~1.4 times of WT-IgG1.

B7: WT-M73 (antibody)
heavy: QVQLQESGPGLVRPSQTLSLTCTVSGYSITSDHAWSWVRQPPGRGLEWIGYISYSGITTYNPSLKSRVTMLRDTSKNQFSLRLSSVTAADTAVYYCARSLARTTAMDYWGQGSLVTVSSASTKGPSVFPLAPSSKSTSGGTAALGCLVKDYFPEPVTVSWNSGALTSGVHTFPAVLQSSGLYSLSSVVTVPSSNFGTQTYTCNVDHKPSNTKVDKTVERKSCVECPPCPAPPVAGPSVFLFPPKPKDTLMISRTPEVTCVVVDVSQEDPEVQFNWYVDGVEVHNAKTKPREEQFNSTFRVVSVLTVVHQDWLNGKEYKCKVSNKGLPAPIEKTISKTKGQPREPQVYTLPPSQEEMTKNQVSLTCLVKGFYPSDIAVEWESNGQPENNYKTTPPMLDSDGSFFLYSKLTVDKSRWQEGNVFSCSVMHEALHAHYTQKSLSLSP
light: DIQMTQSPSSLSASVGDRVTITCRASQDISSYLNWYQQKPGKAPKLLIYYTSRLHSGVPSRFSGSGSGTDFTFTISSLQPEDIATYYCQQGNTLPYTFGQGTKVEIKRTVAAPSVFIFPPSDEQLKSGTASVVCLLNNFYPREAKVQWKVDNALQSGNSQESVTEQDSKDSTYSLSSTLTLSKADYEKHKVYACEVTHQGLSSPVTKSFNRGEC
notes: WT-M58 with alanine at position 434 (EU numbering); L(WT) as L chain; copies: 2 + 2
B7: the “binding relative to WT-IgG1” value in experiment [7] was ~3.8 times of WT-IgG1.

B8: F2H/L39-IgG1 (antibody, V domains shown)
VH: QVQLQESGPGLVKPSETLSLTCAVSGYSISDDHAWSWVRQPPGEGLEWIGYISYSGITNYNPSLQDRVTISRDNSKNTLYLQMNSLRAEDTAVYYCARLLARATAMDYWGQGILVTVSS
VL: DIQMTQSPSSLSASVGDSVTITCQASEDISSYLNWYQQKPGKAPELLIYYGSELESGVPSRFSGSGSGTDFTFTISSLEAEDAATYYCGQGNRLPYTFGQGTKVEIER
In the case of B8, the “BaF/gp130-neutralizing activity, 100% inhibitory concentration, against WT” value in experiment [1] was no less than 100 times higher than WT. Besides, in experiment [3], the “ka relative to PF1-IgG1” value was ~0.5 fold of PF1-IgG1.

B9: Fv3-M73 (antibody, V domains shown)
VH: QVQLQESGPGLVKPSETLSLTCAVSGHSISHDHAWSWVRQPPGEGLEWIGFISYSGITNYNPTLQGRVTISRDNSKNTLYLQMNSLRAEDTAVYYCARSLARTTAMDYWGEGTLVTVSS
VL: DIQMTQSPSSLSASVGDSVTITCQASRDISSHLNWYQQKPGKAPELLIYYGSHLLSGVPSRFSGSGSGTDFTFTISSLEAEDAATYYCGQGNRLPYTFGQGTKVEIER
notes: also called H chain VH4-M73, L chain VL1-kappa
As to B9, in experiment [8], the “fold higher affinity than TOCILIZUMAB” value stood at 3 times.

B10: Fv4-M73 (antibody, V domains shown)
VH: QVQLQESGPGLVKPSETLSLTCAVSGHSISHDHAWSWVRQPPGEGLEWIGFISYSGITNYNPSLQGRVTISRDNSKNTLYLQMNSLRAEDTAVYYCARSLARTTAMDYWGEGTLVTVSS
VL: DIQMTQSPSSLSASVGDSVTITCQASTDISSHLNWYQQKPGKAPELLIYYGSHLLSGVPSRFSGSGSGTDFTFTISSLEAEDAATYYCGQGNRLPYTFGQGTKVEIER
notes: also called H chain VH3-M73, L chain VL3-kappa
As to B10, the “fold higher affinity than TOCILIZUMAB” value in experiment [8] stood at 2 times.
